Data taken from the supplement of paper PMC9112550, “Optimization of the antimicrobial peptide Bac7 by deep mutational scanning” (BMC Biology, 2022).

Test system: Escherichia coli TOP10
Experiment: shrunken log2 fold change of peptide-encoding DNA abundance (4.5 h post-induction vs induction); higher = less antimicrobial activity (less host growth inhibition)
Details: time post-induction: 4.5 h; library: site-saturation at positions 5, 18, 19, 20
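Also: peptides expressed intracellularly from a pBAD plasmid library in pooled LB shake-flask culture, induced with 0.3% L-arabinose, DNA abundance read by NGS, three biological replicates, DESeq2 with apeglm shrinkage.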

| Sequence | shrunken log2 fold change |
| --- | --- |
| RRIRGRPPRLPRPRPRPENCPRP | 0.111 |
| RRIRRRPPRLPRPRPRPEFLPRP | 0.441 |
| RRIRIRPPRLPRPRPRPTWFPRP | 0.159 |
| RRIRCRPPRLPRPRPRPCIMPRP | -0.336 |
| RRIRRRPPRLPRPRPRPSQEPRP | -0.225 |
| RRIRDRPPRLPRPRPRPDWLPRP | 0.34 |
| RRIRKRPPRLPRPRPRPSIPPRP | -1.13 |
| RRIRQRPPRLPRPRPRPAFCPRP | 0.585 |
| RRIRDRPPRLPRPRPRPHTMPRP | -0.863 |
| RRIRWRPPRLPRPRPRPLEYPRP | -0.152 |
| RRIRRRPPRLPRPRPRPHKKPRP | 0.228 |
| RRIRVRPPRLPRPRPRPNYPPRP | -0.515 |
| RRIRWRPPRLPRPRPRPGIKPRP | -0.168 |
| RRIRTRPPRLPRPRPRPCTKPRP | 0.0197 |
| RRIRFRPPRLPRPRPRPHKKPRP | -0.369 |
| RRIRHRPPRLPRPRPRPKPCPRP | -0.139 |
| RRIRQRPPRLPRPRPRPMGLPRP | -0.0103 |
| RRIRRRPPRLPRPRPRPETDPRP | -0.00744 |
| RRIRIRPPRLPRPRPRPYKIPRP | -0.688 |
| RRIRPRPPRLPRPRPRPAAVPRP | 0.41 |
| RRIRERPPRLPRPRPRPDMFPRP | -0.0153 |
| RRIRRRPPRLPRPRPRPPVLPRP | 0.18 |
| RRIRDRPPRLPRPRPRPKSMPRP | -0.0219 |
| RRIRGRPPRLPRPRPRPKDYPRP | -0.00224 |
| RRIRCRPPRLPRPRPRPIYSPRP | -0.59 |

| Sequence | shrunken log2 fold change |
| --- | --- |
| RRIRDRPPRLPRPRPRPPIDPRP | 0.0165 |
| RRIRGRPPRLPRPRPRPTTRPRP | 0.79 |
| RRIRARPPRLPRPRPRPLTFPRP | -0.203 |
| RRIRQRPPRLPRPRPRPSLSPRP | -0.227 |
| RRIRVRPPRLPRPRPRPYRMPRP | -0.467 |
| RRIRWRPPRLPRPRPRPRHFPRP | 0.223 |
| RRIRHRPPRLPRPRPRPVARPRP | 0.227 |
| RRIRARPPRLPRPRPRPAIPPRP | -0.101 |
| RRIRWRPPRLPRPRPRPHVIPRP | -0.13 |
| RRIRTRPPRLPRPRPRPGMYPRP | -0.3 |
| RRIRRRPPRLPRPRPRPLFHPRP | 0.0745 |
| RRIRQRPPRLPRPRPRPMSTPRP | -0.0212 |
| RRIRLRPPRLPRPRPRPMMTPRP | -0.042 |
| RRIRLRPPRLPRPRPRPEIPPRP | -0.0569 |
| RRIRDRPPRLPRPRPRPLQLPRP | -0.0775 |
| RRIRDRPPRLPRPRPRPKCQPRP | -0.00187 |
| RRIRKRPPRLPRPRPRPFICPRP | 0.0135 |
| RRIRWRPPRLPRPRPRPVECPRP | 0.194 |
| RRIRFRPPRLPRPRPRPGRDPRP | 0.0984 |
| RRIRVRPPRLPRPRPRPTGVPRP | 0.0149 |
| RRIRHRPPRLPRPRPRPYDCPRP | -0.0596 |
| RRIRPRPPRLPRPRPRPWGQPRP | 0.0568 |
| RRIRVRPPRLPRPRPRPFFAPRP | 0.238 |
| RRIRYRPPRLPRPRPRPSNAPRP | -1 |
| RRIRIRPPRLPRPRPRPNVGPRP | 0.011 |

| Sequence | shrunken log2 fold change |
| --- | --- |
| RRIRIRPPRLPRPRPRPFVSPRP | -0.571 |
| RRIRSRPPRLPRPRPRPFVYPRP | -0.368 |
| RRIRDRPPRLPRPRPRPKWFPRP | -0.0316 |
| RRIRKRPPRLPRPRPRPLCMPRP | 0.081 |
| RRIRERPPRLPRPRPRPNELPRP | -0.0227 |
| RRIRKRPPRLPRPRPRPFCYPRP | -0.14 |
| RRIRERPPRLPRPRPRPPYVPRP | -0.524 |
| RRIRSRPPRLPRPRPRPAFSPRP | -0.145 |
| RRIRMRPPRLPRPRPRPNAFPRP | 0.344 |
| RRIRSRPPRLPRPRPRPPKIPRP | -0.0117 |
| RRIRSRPPRLPRPRPRPMDDPRP | -0.0393 |
| RRIRLRPPRLPRPRPRPPPGPRP | 1.29 |
| RRIRSRPPRLPRPRPRPGIMPRP | -0.334 |
| RRIRIRPPRLPRPRPRPAVCPRP | -0.214 |
| RRIRYRPPRLPRPRPRPLFQPRP | -0.76 |
| RRIRLRPPRLPRPRPRPSARPRP | 0.0346 |
| RRIRVRPPRLPRPRPRPHRQPRP | -0.384 |
| RRIRIRPPRLPRPRPRPWGEPRP | -0.0259 |
| RRIRDRPPRLPRPRPRPIMYPRP | -0.0948 |
| RRIRIRPPRLPRPRPRPDWFPRP | 0.0564 |
| RRIRERPPRLPRPRPRPTGEPRP | -0.0152 |
| RRIRPRPPRLPRPRPRPSKVPRP | -0.223 |
| RRIRPRPPRLPRPRPRPPPNPRP | 0.743 |
| RRIRNRPPRLPRPRPRPFIRPRP | -0.111 |
| RRIRGRPPRLPRPRPRPPKWPRP | 0.469 |

| Sequence | shrunken log2 fold change |
| --- | --- |
| RRIRNRPPRLPRPRPRPRYDPRP | -0.494 |
| RRIRFRPPRLPRPRPRPCIWPRP | 0.25 |
| RRIRRRPPRLPRPRPRPCPMPRP | -0.0862 |
| RRIRLRPPRLPRPRPRPFVEPRP | -0.478 |
| RRIRTRPPRLPRPRPRPIVCPRP | -0.246 |
| RRIRYRPPRLPRPRPRPHNPPRP | -1.15 |
| RRIRCRPPRLPRPRPRPDDMPRP | -0.477 |
| RRIRHRPPRLPRPRPRPDNLPRP | 0.0139 |
| RRIRLRPPRLPRPRPRPNPLPRP | 0.256 |
| RRIRWRPPRLPRPRPRPLTDPRP | -0.0316 |
| RRIRGRPPRLPRPRPRPWHFPRP | -0.0456 |
| RRIRLRPPRLPRPRPRPTYNPRP | -0.869 |
| RRIRYRPPRLPRPRPRPSCVPRP | -0.497 |
| RRIRTRPPRLPRPRPRPAFFPRP | 0.0542 |
| RRIRTRPPRLPRPRPRPFEIPRP | 0.0711 |
| RRIRMRPPRLPRPRPRPGEEPRP | 3.02 |
| RRIRHRPPRLPRPRPRPAEHPRP | -0.144 |
| RRIRPRPPRLPRPRPRPGLPPRP | 0.0398 |
| RRIRPRPPRLPRPRPRPHDRPRP | -0.0974 |
| RRIRHRPPRLPRPRPRPQCFPRP | -0.0477 |
| RRIRWRPPRLPRPRPRPFVNPRP | -0.483 |
| RRIRHRPPRLPRPRPRPLYDPRP | -0.738 |
| RRIRLRPPRLPRPRPRPIILPRP | -1.48 |
| RRIRDRPPRLPRPRPRPPCIPRP | -0.264 |
| RRIRQRPPRLPRPRPRPQLNPRP | -0.367 |

| Sequence | shrunken log2 fold change |
| --- | --- |
| RRIRPRPPRLPRPRPRPHCIPRP | -0.325 |
| RRIRMRPPRLPRPRPRPQANPRP | 0.271 |
| RRIRSRPPRLPRPRPRPYWKPRP | -0.144 |
| RRIRWRPPRLPRPRPRPRIQPRP | 0.273 |
| RRIRYRPPRLPRPRPRPIMFPRP | -1.35 |
| RRIRYRPPRLPRPRPRPMAPPRP | 0.025 |
| RRIRTRPPRLPRPRPRPDTVPRP | -0.0391 |
| RRIRTRPPRLPRPRPRPDQKPRP | -0.056 |
| RRIRHRPPRLPRPRPRPFTTPRP | -0.0869 |
| RRIRVRPPRLPRPRPRPCLPPRP | -0.219 |
| RRIRHRPPRLPRPRPRPWCLPRP | -1.67 |
| RRIRVRPPRLPRPRPRPILQPRP | -0.399 |
| RRIRIRPPRLPRPRPRPKYTPRP | -0.686 |
| RRIRQRPPRLPRPRPRPSAKPRP | 0.104 |
| RRIRNRPPRLPRPRPRPCSEPRP | -0.231 |
| RRIRPRPPRLPRPRPRPFEFPRP | 0.0458 |
| RRIRFRPPRLPRPRPRPQGFPRP | -0.313 |
| RRIRDRPPRLPRPRPRPDCIPRP | 0.438 |
| RRIRGRPPRLPRPRPRPQGTPRP | -0.0716 |
| RRIRNRPPRLPRPRPRPLCHPRP | -0.359 |
| RRIRFRPPRLPRPRPRPMFFPRP | -0.549 |
| RRIRRRPPRLPRPRPRPTQRPRP | 0.625 |
| RRIRFRPPRLPRPRPRPVLFPRP | -0.172 |
| RRIRARPPRLPRPRPRPMRSPRP | 0.0669 |
| RRIRGRPPRLPRPRPRPTCQPRP | 0.71 |

| Sequence | shrunken log2 fold change |
| --- | --- |
| RRIRLRPPRLPRPRPRPMCMPRP | -0.451 |
| RRIRPRPPRLPRPRPRPFKIPRP | 0.0869 |
| RRIRERPPRLPRPRPRPPWVPRP | -0.0642 |
| RRIRVRPPRLPRPRPRPMKHPRP | -0.525 |
| RRIRSRPPRLPRPRPRPTEAPRP | 0.0706 |
| RRIRLRPPRLPRPRPRPESCPRP | 0.0209 |
| RRIRWRPPRLPRPRPRPILRPRP | -0.0505 |
| RRIRERPPRLPRPRPRPWTAPRP | -0.478 |
| RRIRQRPPRLPRPRPRPEAEPRP | 0.302 |
| RRIRYRPPRLPRPRPRPEPDPRP | 0.0689 |
| RRIRWRPPRLPRPRPRPVRVPRP | 0.214 |
| RRIRMRPPRLPRPRPRPQACPRP | -0.12 |
| RRIRARPPRLPRPRPRPQTFPRP | -0.528 |
| RRIRCRPPRLPRPRPRPIRAPRP | -0.0291 |
| RRIRVRPPRLPRPRPRPIGVPRP | -0.01 |
| RRIRGRPPRLPRPRPRPPFAPRP | 1.91 |
| RRIRPRPPRLPRPRPRPDNWPRP | -0.121 |
| RRIRARPPRLPRPRPRPTIKPRP | 0.0966 |
| RRIRTRPPRLPRPRPRPGWAPRP | 0.622 |
| RRIRTRPPRLPRPRPRPSLDPRP | -0.286 |
| RRIRARPPRLPRPRPRPFKMPRP | -0.253 |
| RRIRNRPPRLPRPRPRPDCSPRP | -0.224 |
| RRIRRRPPRLPRPRPRPIDTPRP | -0.307 |
| RRIRIRPPRLPRPRPRPAVEPRP | 0.193 |
| RRIRVRPPRLPRPRPRPNIFPRP | -0.234 |
